This passage reports Kd results from patent publication CN116710484A (MYLINGENE INC, dated 2023).

Assay [1] addresses T1, mouse recombinant WARS1 protein (mouse, UniProt P32921 1-481, limits assumed).
T1 construct: Recombinant protein; also called 小鼠WARS1; 小鼠重组蛋白
T1 sequence (looked up): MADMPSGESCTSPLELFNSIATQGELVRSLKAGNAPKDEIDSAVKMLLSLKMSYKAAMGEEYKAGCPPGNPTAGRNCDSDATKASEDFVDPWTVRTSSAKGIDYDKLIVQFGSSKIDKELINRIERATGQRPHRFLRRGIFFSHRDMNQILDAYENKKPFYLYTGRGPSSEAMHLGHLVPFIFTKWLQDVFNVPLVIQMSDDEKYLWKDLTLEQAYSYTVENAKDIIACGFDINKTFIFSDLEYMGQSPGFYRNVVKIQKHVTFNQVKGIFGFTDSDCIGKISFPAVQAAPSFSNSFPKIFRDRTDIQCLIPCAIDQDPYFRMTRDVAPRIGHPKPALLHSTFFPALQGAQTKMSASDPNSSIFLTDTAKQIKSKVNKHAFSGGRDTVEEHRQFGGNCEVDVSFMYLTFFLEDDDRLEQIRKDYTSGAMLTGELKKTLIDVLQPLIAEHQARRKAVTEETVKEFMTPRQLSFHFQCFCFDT
In words: SPR, Biacore T200, CM5 chip. (In general: Surface plasmon resonance follows binding to a sensor surface in real time, without labels.)

Assay [2] addresses T2, human recombinant WARS1 protein (tryptophanyl-tRNA synthetase 1) (human, UniProt P23381 1-471, limits assumed).
T2 construct: Recombinant protein; also called 人WARS1; 人重组蛋白
T2 sequence (looked up): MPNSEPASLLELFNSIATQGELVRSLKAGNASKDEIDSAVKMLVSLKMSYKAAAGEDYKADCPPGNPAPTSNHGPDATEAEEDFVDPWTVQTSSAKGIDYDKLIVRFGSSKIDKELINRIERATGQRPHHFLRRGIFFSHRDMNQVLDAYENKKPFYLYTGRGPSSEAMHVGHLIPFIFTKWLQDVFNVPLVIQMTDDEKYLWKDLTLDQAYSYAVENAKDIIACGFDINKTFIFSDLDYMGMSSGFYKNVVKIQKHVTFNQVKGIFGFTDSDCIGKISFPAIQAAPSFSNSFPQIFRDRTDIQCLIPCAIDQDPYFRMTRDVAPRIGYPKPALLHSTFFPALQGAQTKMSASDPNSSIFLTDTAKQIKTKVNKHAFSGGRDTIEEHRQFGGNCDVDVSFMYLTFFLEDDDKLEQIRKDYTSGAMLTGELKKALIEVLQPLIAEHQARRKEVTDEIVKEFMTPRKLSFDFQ
In words: SPR, Biacore T200, CM5 chip.

B1: GKB101 (antibody, V domains shown)
VH: EVQLLESGGGLVQPGGSLRLSCAASGFTFSSYDMSWVRQAPGKGLEWVSAISSGGSSIYYADSVKGRFTISRDNSKNTLYLQMNSLRAEDTAVYYCARDVAWDMLGDFDYWGQGTLVTVSS
VL: QSVLTQPPSASGTPGQRVTISCTGSSSNIGSNYVYWYQQLPGTAPKLLIYANSHRPSGVPDRFSGSKSGTSASLAISGLRSEDEADYYCGAWDDSLSAYVFGGGTKLTV
notes: also called WARS1特异性抗体; 抗WARS1抗体
As for B1, the dissociation constant (Kd) (in general, a measure of binding affinity in units of concentration) is roughly 3.76 nM in assay [1] and roughly 0.2 nM in assay [2].
